Experimental data as given in patent US20240270841A1 (LG CHEM, published 2024).

Legend:
[1] = target: T1, LILRB1 expressed on the surface of human natural killer cell KHYG-1 (human, UniProt Q8NHL6 24-650); experiment: flow cytometry (iQue) on KHYG-1 NK cells, antibody 50 ug/mL
T1 construct: whole, on cells; also called LILRB1 on KHYG-1 cells; human NK cells (surface)
Experimental: In order to test whether or not 93 antibodies selected in Example 1.4 bind LILRB1 expressed on surface of immune cells, natural killer cell (NK cell) surface binding assay was performed. A human NK cell, KHYG-1 cell (JCRB) was cultured in RPMI 1640 medium (Gibco) supplemented with 10%(w/v) of FBS (Gibco) and 100 U/mL of interleukin-2 (Novartis). KHYG-1 cells were added to a U-bottom 96-well tissue culture plate (BD Falcon) at the amount of 5×10⁴ cells/well. Each of the selected antibodies was added to the well to the final concentration of 50 μg/mL per well and incubated at 4° C. for 1 hour.
In order to see the level of LILRB1-specific binding of the selected antibodies, a human IgG4 isotype control antibody (Biolegend) was treated in the same manner. After washing with FACS buffer, the cells were treated with an anti-human Fc-biotin antibody (life technologies) and incubated at 4° C. for 1 hour. After washing with FACS buffer, the cells were treated with streptavidin PE (BD Pharmigen) and incubated at 4° C. for 30 minutes. After washing with FACS buffer, the cells were resuspended and subjected to analysis using iQue screener (Sartorius).

[2] = target: T2, human LILRB1 overexpressed on CHO cells (human, UniProt Q8NHL6 24-650); experiment: flow cytometry (iQue) on CHO cells overexpressing LILRB1, threefold dilutions
T2 construct: Full-length protein expressed from a vector in CHO cells; also called AAH15731
Experimental: In order to determine EC₅₀ values of the antibodies prepared in Examples 1 and 4 for binding to human LILRB1-overexpressing cell lines, a cell surface binding assay was performed. Representing the prepared antibodies, EC₅₀ values of E3.1 and H11 antibodies were measured. The CHO cells prepared in Example 5, which overexpress LILRB1 on surface, were added to U-bottom 96-well tissue culture plate (BD Falcon) at the amount of 1×10⁵ cells/well. Threefold serial dilutions of E3.1 and H11 antibodies were prepared starting from the final concentrations of 600 ug/mL and 27 ug/mL, respectively. The cells were treated with each of the diluted antibodies and incubated at 4° C. for 60 minutes. After washing with FACS buffer, the cells were treated with anti-human Fc-biotin antibody (Invitrogen) and incubated at 4° C. for 30 minutes. After washing with FACS buffer, the cells were treated with streptavidin (BD Pharmigen) labeled with PE fluorescence and incubated at 4° C. for 30 minutes. After washing with FACS buffer, the cells were resuspended and subjected to analysis using iQue screener (Sartorius). EC₅₀ values were calculated using nonlinear regression formula of GraphPad Prism software, and the obtained results are shown in Table 28: […]

[3] = target: T3, human LILRB1 protein (LILRB1-His, RnD systems Cat. No. 8989-T2) (human, UniProt Q8NHL6 24-458); experiment: SPR (Biacore T200), antibody captured by anti-human IgG (Fc), LILRB1-His injected
T3 construct: Bought protein; also called human LILRB1-His; not shown: His tag
Experimental: The binding affinities of the 93 antibodies, which were selected in Example 1.3, to the antigen, LILRB1, were measured using Biacore T200 (GE healthcare). An anti-human IgG (Fc) antibody (GE healthcare, Cat. No. BR-1008-39, final concentration of 25 μg/mL) was flowed at the flow rate of 5 μL/min for 360 seconds to be immobilized at 5000-7000 RU on Series S Sensor Chip CM5 (GE healthcare, Cat. No. BR-1005-30) using Amine Coupling Kit (GE healthcare, Cat. No. BR-1000-508).

[4] = target: T4, human LILRA6 overexpressed on CHO cells (human, UniProt Q6PI73 24-481); experiment: flow cytometry (iQue screener), CHO cells overexpressing LILRA6, anti-human Fc-biotin + streptavidin-PE [panel LILRA6]
T4 construct: Full-length protein expressed in CHO cells; also called NP_001347096
Experimental: (§1) In order to confirm whether or not the selected antibodies bind to human LILR family proteins other than LILRB1, a cell surface binding assay was performed. The CHO cells (prepared in Example 5) expressing each of various LILR family proteins on surface were added to U-bottom 96-well tissue culture plate (BD Falcon) at the amount of 1×10⁵ cells/well. The cells in each well were treated with the selected antibody in the final concentration of 20 ug/mL and incubated at 4° C. for 60 minutes. After washing with FACS buffer, the cells were treated with anti-human Fc-biotin antibody (Invitrogen) and incubated at 4° C. for 30 minutes. After washing with FACS buffer, the cells were treated with streptavidin (BD Pharmigen) labeled with PE or FITC fluorescence and incubated at 4° C. for 30 minutes. After washing with FACS buffer, the cells were resuspended and subjected to analysis using iQue screener (Sartorius). The cells treated with each LILR protein specific antibody (Table 27) were used as a positive control, and the cells treated with human IgG4 isotype control antibody (Biolegend) were used as a negative control.

[5] = target: T5, human LILRB4 overexpressed on CHO cells (human, UniProt Q8NHJ6 22-448); experiment: flow cytometry (iQue screener), CHO cells overexpressing LILRB4, anti-human Fc-biotin + streptavidin-PE [panel LILRB4]
T5 construct: Full-length protein expressed in CHO cells; also called NP_001265355
Experimental: as §1

[6] = target: T6, human LILRA4 overexpressed on CHO cells (human, UniProt P59901 24-499); experiment: flow cytometry (iQue screener), CHO cells overexpressing LILRA4, anti-human Fc-biotin + streptavidin-PE [panel LILRA4]
T6 construct: Full-length protein expressed in CHO cells; also called NP_036408
Experimental: as §1

[7] = target: T7, human LILRB5 overexpressed on CHO cells (human, UniProt O75023 24-590); experiment: flow cytometry (iQue screener), CHO cells overexpressing LILRB5, anti-human Fc-biotin + streptavidin-PE [panel LILRB5]
T7 construct: Full-length protein expressed in CHO cells; also called NP_006831
Experimental: as §1

[8] = target: T8, human LILRA5 overexpressed on CHO cells (human, UniProt A6NI73 42-299); experiment: flow cytometry (iQue screener), CHO cells overexpressing LILRA5, anti-human Fc-biotin + streptavidin-PE [panel LILRA5]
T8 construct: Full-length protein expressed in CHO cells; also called NP_067073
Experimental: as §1

[9] = target: T9, human LILRB3 overexpressed on CHO cells (human, UniProt O75022 24-631); experiment: flow cytometry (iQue screener), CHO cells overexpressing LILRB3, anti-human Fc-biotin + streptavidin-PE [panel LILRB3]
T9 construct: Full-length protein expressed in CHO cells; also called XP_006726377
Experimental: as §1

[10] = target: T10, human LILRA3 overexpressed on CHO cells (human, UniProt Q8N6C8 24-439); experiment: flow cytometry (iQue screener, BL1-H channel), CHO cells overexpressing LILRA3, anti-human Fc-biotin + labelled streptavidin [panel LILRA3]
T10 construct: Full-length protein expressed in CHO cells; also called AAH28208
Experimental: as §1

[11] = target: T11, human LILRA1 overexpressed on CHO cells (human, UniProt O75019 17-489); experiment: flow cytometry (iQue screener), CHO cells overexpressing LILRA1, anti-human Fc-biotin + streptavidin-PE [panel LILRA1]
T11 construct: Full-length protein expressed in CHO cells; also called NP_006854
Experimental: as §1

[12] = target: T12, human LILRB2 overexpressed on CHO cells (human, UniProt Q8N423 22-597); experiment: flow cytometry (iQue screener), CHO cells overexpressing LILRB2, anti-human Fc-biotin + streptavidin-PE [panel LILRB2]
T12 construct: Full-length protein expressed in CHO cells; also called AAH36827
Experimental: as §1

[13] = target: T13, human LILRA2 overexpressed on CHO cells (human, UniProt Q8N149 24-483); experiment: flow cytometry (iQue screener), CHO cells overexpressing LILRA2, anti-human Fc-biotin + streptavidin-PE [panel LILRA2]
T13 construct: Full-length protein expressed in CHO cells; also called AAH17412
Experimental: as §1

T3 sequence (Q8NHL6 24-458 limits assumed): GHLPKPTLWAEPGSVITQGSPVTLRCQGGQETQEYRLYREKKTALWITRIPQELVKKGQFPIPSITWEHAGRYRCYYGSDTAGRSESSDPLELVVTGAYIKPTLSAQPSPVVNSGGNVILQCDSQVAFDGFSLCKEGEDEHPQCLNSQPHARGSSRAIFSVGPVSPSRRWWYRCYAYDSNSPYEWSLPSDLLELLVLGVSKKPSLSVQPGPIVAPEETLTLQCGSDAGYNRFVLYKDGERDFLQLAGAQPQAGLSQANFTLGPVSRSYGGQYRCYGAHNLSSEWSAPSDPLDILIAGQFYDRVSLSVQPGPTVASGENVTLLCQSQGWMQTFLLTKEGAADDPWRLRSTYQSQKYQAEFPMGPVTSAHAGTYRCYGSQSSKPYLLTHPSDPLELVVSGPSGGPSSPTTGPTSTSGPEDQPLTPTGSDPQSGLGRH
T5 sequence (Q8NHJ6 22-448 D223G/Q414R limits assumed): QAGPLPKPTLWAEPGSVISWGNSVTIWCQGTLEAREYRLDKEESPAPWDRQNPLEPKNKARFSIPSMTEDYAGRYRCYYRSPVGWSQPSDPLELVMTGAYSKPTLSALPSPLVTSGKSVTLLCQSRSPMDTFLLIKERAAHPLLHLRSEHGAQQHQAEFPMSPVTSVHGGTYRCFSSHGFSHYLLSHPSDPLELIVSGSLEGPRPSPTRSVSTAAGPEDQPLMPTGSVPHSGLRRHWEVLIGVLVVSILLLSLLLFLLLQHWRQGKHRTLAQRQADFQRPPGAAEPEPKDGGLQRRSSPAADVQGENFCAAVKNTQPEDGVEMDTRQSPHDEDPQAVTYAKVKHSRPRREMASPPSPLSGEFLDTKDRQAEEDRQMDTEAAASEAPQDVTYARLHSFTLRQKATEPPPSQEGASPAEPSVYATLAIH
T4 sequence (Q6PI73 24-481 limits assumed): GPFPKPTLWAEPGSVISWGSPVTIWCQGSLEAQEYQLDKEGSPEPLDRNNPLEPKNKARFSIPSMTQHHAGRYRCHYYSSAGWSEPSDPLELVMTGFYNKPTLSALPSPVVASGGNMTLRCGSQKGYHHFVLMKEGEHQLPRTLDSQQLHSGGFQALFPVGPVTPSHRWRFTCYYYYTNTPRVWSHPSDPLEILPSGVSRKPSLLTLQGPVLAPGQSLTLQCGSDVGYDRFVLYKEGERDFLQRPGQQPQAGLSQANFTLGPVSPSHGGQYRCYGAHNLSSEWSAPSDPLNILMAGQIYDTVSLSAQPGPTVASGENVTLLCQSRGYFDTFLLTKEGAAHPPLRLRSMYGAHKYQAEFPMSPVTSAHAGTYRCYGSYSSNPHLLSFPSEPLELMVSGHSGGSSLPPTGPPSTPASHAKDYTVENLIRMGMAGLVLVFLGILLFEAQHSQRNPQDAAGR
T1 sequence (Q8NHL6 24-650): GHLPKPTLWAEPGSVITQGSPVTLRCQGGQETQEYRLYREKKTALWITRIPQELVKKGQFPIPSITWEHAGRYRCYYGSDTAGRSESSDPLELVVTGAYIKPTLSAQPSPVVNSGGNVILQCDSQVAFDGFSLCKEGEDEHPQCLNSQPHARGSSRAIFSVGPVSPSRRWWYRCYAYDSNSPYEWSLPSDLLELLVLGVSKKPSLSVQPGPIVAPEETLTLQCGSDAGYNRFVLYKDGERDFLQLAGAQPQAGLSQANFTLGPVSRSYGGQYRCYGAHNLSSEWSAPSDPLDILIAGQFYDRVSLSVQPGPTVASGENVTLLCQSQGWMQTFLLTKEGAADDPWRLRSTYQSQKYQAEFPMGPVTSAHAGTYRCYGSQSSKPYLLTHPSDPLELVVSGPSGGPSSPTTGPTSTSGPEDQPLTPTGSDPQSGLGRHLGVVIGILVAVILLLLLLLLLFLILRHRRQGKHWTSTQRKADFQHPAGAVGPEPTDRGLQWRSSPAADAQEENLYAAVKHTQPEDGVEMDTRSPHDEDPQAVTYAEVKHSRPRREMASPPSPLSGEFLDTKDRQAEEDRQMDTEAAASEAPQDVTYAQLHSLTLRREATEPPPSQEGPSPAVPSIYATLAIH
T9 sequence (O75022 other isoform, or with tags, fused parts or gaps limits assumed): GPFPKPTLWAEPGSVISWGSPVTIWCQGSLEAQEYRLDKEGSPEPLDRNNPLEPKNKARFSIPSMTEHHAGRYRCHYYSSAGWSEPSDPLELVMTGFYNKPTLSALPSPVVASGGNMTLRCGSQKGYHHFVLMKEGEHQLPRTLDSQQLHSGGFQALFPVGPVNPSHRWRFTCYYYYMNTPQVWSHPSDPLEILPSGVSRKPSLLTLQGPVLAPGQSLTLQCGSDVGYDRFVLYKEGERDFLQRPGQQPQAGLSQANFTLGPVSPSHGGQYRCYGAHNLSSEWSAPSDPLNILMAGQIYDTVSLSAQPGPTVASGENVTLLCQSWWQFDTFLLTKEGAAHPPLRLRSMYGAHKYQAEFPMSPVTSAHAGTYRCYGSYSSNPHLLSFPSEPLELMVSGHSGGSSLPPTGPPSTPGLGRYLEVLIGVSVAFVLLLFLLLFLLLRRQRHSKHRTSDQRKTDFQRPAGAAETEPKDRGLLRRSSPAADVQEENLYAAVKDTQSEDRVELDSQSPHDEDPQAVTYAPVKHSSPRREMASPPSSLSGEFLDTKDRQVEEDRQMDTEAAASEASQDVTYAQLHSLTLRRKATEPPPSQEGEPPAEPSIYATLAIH
T6 sequence (P59901 other isoform, or with tags, fused parts or gaps limits assumed): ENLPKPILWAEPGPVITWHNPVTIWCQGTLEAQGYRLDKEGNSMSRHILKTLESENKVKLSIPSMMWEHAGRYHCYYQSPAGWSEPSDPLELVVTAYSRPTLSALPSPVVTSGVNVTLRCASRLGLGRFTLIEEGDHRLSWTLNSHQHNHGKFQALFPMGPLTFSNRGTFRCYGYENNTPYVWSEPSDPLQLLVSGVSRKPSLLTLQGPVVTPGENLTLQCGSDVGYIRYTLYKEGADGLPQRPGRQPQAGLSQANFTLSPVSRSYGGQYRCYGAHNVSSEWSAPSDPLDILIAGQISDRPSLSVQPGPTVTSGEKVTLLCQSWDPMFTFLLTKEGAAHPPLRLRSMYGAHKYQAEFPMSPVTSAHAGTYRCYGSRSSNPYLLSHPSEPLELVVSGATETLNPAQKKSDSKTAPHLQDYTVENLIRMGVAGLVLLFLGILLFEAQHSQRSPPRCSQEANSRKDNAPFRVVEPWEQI
T2 sequence (Q8NHL6 other isoform, or with tags, fused parts or gaps limits assumed): as the sequence (Q8NHL6 24-650) above, with L45P, I119T, S132I, E602K counted along it
T10 sequence (Q8N6C8 24-439 A105V limits assumed): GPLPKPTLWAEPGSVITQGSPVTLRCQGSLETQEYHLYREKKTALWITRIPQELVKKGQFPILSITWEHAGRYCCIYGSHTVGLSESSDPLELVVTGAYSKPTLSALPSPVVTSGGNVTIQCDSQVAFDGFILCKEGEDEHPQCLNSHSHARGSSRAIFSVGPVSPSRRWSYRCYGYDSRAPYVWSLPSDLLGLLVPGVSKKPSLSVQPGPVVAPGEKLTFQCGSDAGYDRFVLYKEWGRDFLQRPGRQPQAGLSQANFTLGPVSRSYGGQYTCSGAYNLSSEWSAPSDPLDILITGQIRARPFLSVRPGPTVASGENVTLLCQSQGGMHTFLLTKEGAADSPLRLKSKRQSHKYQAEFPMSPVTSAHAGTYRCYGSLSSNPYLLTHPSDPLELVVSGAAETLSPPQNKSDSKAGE
T8 sequence (A6NI73 42-299 limits assumed): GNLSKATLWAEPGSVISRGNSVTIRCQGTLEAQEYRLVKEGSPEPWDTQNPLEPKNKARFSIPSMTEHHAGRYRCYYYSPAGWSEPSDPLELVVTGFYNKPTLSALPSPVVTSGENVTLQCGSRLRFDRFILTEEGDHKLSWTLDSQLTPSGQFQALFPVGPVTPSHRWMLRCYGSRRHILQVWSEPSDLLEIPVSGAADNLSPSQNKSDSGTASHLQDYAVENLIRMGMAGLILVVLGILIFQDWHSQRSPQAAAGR
T7 sequence (O75023 24-590 P542R limits assumed): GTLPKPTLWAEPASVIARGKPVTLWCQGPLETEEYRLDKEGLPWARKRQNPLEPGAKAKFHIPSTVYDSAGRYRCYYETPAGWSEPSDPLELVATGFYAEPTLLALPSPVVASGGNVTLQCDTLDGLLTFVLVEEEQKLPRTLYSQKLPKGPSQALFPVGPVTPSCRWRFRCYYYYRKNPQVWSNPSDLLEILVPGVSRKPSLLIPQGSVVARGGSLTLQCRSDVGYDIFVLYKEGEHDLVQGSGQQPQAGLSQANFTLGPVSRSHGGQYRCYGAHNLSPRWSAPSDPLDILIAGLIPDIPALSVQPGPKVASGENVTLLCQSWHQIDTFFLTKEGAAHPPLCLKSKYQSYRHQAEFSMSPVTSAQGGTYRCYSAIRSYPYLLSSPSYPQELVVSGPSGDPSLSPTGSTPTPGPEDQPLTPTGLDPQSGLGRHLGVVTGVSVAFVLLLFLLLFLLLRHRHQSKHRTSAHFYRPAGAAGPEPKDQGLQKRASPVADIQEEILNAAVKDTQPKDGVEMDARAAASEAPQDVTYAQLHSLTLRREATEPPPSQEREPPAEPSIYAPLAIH
T11 sequence (O75019 17-489 limits assumed): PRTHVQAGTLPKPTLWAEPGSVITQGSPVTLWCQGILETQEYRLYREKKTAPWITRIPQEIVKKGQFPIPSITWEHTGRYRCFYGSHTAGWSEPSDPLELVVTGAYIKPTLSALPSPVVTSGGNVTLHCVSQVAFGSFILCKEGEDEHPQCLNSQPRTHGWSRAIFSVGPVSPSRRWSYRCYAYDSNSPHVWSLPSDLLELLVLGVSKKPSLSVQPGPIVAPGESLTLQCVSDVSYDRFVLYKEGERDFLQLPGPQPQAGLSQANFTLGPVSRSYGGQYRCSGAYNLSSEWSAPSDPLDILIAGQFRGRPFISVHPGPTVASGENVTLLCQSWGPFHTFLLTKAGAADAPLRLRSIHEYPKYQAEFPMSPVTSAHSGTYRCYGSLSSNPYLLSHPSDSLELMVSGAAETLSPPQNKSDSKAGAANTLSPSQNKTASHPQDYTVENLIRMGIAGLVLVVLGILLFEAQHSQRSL

Row | EC50 [2] | Kd [3] | koff [3] | kon [3] | binding result [4] | binding result [5] | binding result [6] | binding result [7] | binding result [8] | binding result [9] | binding result [10] | binding result [11] | binding result [12] | binding result [13] | Binder | % of population 2 [1] | Mean Fluorescence Intensity [1]
1 | 0.376 nM | 7.62 nM | 0.00226 s⁻¹ | 296000 M⁻¹ s⁻¹ | no binding (tested: 20 ug/mL) | no binding (tested: 20 ug/mL) | no binding (tested: 20 ug/mL) | no binding (tested: 20 ug/mL) | no binding (tested: 20 ug/mL) | no binding (tested: 20 ug/mL) | no binding (tested: 20 ug/mL) |  |  |  | anti-LILRB1 antibody H11 (antibody, human IgG4 S228P, V domains shown, human IgG4, lambda light chain; also called Antibody clone H11) VH: QVQLVQSGAEVKKPGASVKVSCKASGYTFTSYYMHWVRQAPGQGLEWMGIINPSGGSTSYAQKFQGRVTMTRDTSTSTVYMELSSLRSEDTAVYYCARDAGSSSDYWGRGTLVTVSS VL: SYELTQDPAASVALGQTVRITCQGDSLRSYYASWYQQKPGQAPVVVIYGRNNRPSGIPDRFSGSSSGDTASLTITGAQAEDEADYYCKSRDSSGNHYVFGTGTKLTVLG | 32.6% | 245000
2 | 7.15 nM |  |  |  | no binding (tested: 20 ug/mL) | no binding (tested: 20 ug/mL) | no binding (tested: 20 ug/mL) | no binding (tested: 20 ug/mL) | no binding (tested: 20 ug/mL) | no binding (tested: 20 ug/mL) | no binding (tested: 20 ug/mL) | no binding (tested: 20 ug/mL) | no binding (tested: 20 ug/mL) | no binding (tested: 20 ug/mL) | anti-LILRB1 antibody E3.1 (antibody, human IgG4 S228P, lambda, human IgG4; heavy chain of E3; also called Antibody clone E3.1) heavy: not shown light: SYELTQDPAVSVALGQTVRITCQGDSLRNFYASWYQQKSGQAPVLVMYGKNNRPSGIPDRFSGSTSGNTASLTITGAQAEDEADYYCNSRDSSGSHLTGVFGGGTKVTVLGQPKANPTVTLFPPSSEELQANKATLVCLISDFYPGAVTVAWKADGSPVKAGVETTKPSKQSNNKYAASSYLSLTPEQWKSHRSYSCQVTHEGSTVEKTVAPTECS |  | 
